B1: VHH15 (VHH)
VHH: QVQGAGLWGGLVQLGGSLRLSCAASGFTFGYYAMSWVRQAPGKGLEWVSYINDNGGYTAYTDPVKGRFTISRDNAKNILYLHMNNLKPEDTAVYFCAKWGTDAVSSSRYKSHDYDSRGPGTQVTVSS
B2: VHH1 (VHH)
VHH: QVQLQDSGGGLVQAGDRLSLSCAASGRTFSSYDMAWFRQAPGKEREFVAAITTSEGTWYGDAGKGRFTIARVNAKNTVYLHMNRLKPEDTAVYYCAASNQGGSLQISTNYNYWGQGTQVTVSS
B3: VHH3 (VHH)
VHH: QVQLQESGGGLVQPGGSLRLSCAASGFTFKYYAMSWVRQAPGKGLEWVSYINDNGGYTDYSDSVKGRFTISRDNAKNTLYLHMNRLKPEDTAVYFCAKWDTDAVSSSRYKTHNGDIRGPGTQVTVSS
B4: VHH2 (VHH)
VHH: QVQLQESGGGLVQAGDSLRLSCAASGRTFSSYAMGWFRQAPGKEREFVAAVSSSNSPWYGDSIKGRSTIHRDNAKNTVYLYMNNLKPEDTAVYYCAADLEGERLGESSEYDYWGQGTQVTVSS

This test has as its target rhesus rotavirus strain RRV. Nature of the test: cell-based or functional assay.
For the molecule B1, the “% infection of MA104 cells relative to irrelevant VHH (NSP4 Western blot densitometry)” value is 40%.
On to B2, for which the “% infection of MA104 cells relative to irrelevant VHH (NSP4 Western blot densitometry)” value is 40%.
Take B3: the “% infection of MA104 cells relative to irrelevant VHH (NSP4 Western blot densitometry)” value is 40%.
In the case of B4, the “% infection of MA104 cells relative to irrelevant VHH (NSP4 Western blot densitometry)” value worked out at 40%.
